Data set [1] in a line: Intranasal bioavailability of oxycodone conjugates in rats. Particulars: for AUC % (Intranasal Bioavailability): reference = 100.
Data set [2] is described as follows: Intravenous bioavailability of oxycodone conjugates in rats.
Data set [3] can be described thus: Oral bioavailability / oral pharmacokinetics of oxycodone conjugates in rats. Particulars: for AUC % (Oral Bioavailability): reference = 100.
For data set [4] the following is noted: background statement; cited from earlier work.
The mark [5] stands for this setting: relative to OXY = 100, n = 4 animals, analysis by LC-MS.

Here are results for 31 molecules from patent US20110040072A1, “MONO AND DI-SUBSTITUTED OXYCODONE COMPOUNDS AND COMPOSITIONS” (SHIRE LLC, priority 2006, published 2011).

On to `COc1ccc2c3c1O[C@H]1C(OC(=O)[C@H](CC(C)C)NC(=O)[C@@H]4CCCN4C(=O)[C@@H]4CCCN4)=CC[C@@]4(OC(=O)[C@H](CC(C)C)NC(=O)[C@@H]5CCCN5C(=O)[C@@H]5CCCN5)[C@@H](C2)N(C)CC[C@]314` [[PPL]2-OC, [Pro-Pro-Leu]2-OC], for which the “bioavailability by the intranasal route” value in data set [1] (versus oxycodone) was “substantially decreased”. Also, the “bioavailability by the intravenous route” value in data set [2] (versus oxycodone) is listed as “substantially decreased”.

Take `CC[C@H](C)[C@H](NC(=O)CNC(=O)CN)C(=O)OC1=CC[C@@]2(O)[C@H]3Cc4ccc(OC)c5c4[C@@]2(CCN3C)[C@H]1O5` [Gly-Gly-Ile-OC]: in data set [3] (relative to OXY = 100, dosed at 40% higher levels than calculated, n = 4 animals, LC-MS), the “Oral (% AUC)” value was 224 % AUC.

For the molecule `COc1ccc2c3c1O[C@H]1C(OC(=O)[C@@H](NC(=O)[C@H](CC(C)C)NC(=O)[C@@H](N)CC(C)C)C(C)C)=CC[C@@]4(O)[C@@H](C2)N(C)CC[C@]314` [Leu-Leu-Val-OC], the “Oral (% AUC)” value in data set [3] (setting [5]) is 81 % AUC.

Take `CC[C@H](C)[C@H](NC(=O)[C@H](CCCCN)NC(=O)[C@@H](N)CCCCN)C(=O)OC1=CC[C@@]2(O)[C@H]3Cc4ccc(OC)c5c4[C@@]2(CCN3C)[C@H]1O5` [Lys-Lys-Ile-OC]: in data set [3] (setting [5]), the “Oral (% AUC)” value is reported as 74 % AUC.

As to `COc1ccc2c3c1O[C@H]1C(OC(=O)[C@@H](NC(=O)[C@H](CCC(=O)O)NC(=O)[C@@H](N)CCC(=O)O)C(C)C)=CC[C@@]4(O)[C@@H](C2)N(C)CC[C@]314` [Glu-Glu-Val-OC], the “Oral (% AUC)” value in data set [3] (setting [5]) was 55 % AUC.

As for `COc1ccc2c3c1O[C@H]1C(OC(=O)[C@@H](NC(=O)CNC(=O)CN)C(C)C)=CC[C@@]4(O)[C@@H](C2)N(C)CC[C@]314` [Gly-Gly-Val-OC], the “Oral (% AUC)” value in data set [3] (setting [5]) was found to be 123 % AUC.

For Tyr-Tyr-Val-OC, the “AUC % (Oral Bioavailability)” value in data set [3] turned out to be 124%. For the same molecule, the “Oral (% AUC)” value in data set [3] (setting [5]) was 124 % AUC.

As to Tyr-Tyr-Pro-OC, the “Oral (% AUC)” value in data set [3] (setting [5]) came to 59 % AUC.

As for `COc1ccc2c3c1O[C@H]1C(OC(=O)[C@@H](NC(=O)[C@H](CCCCN)NC(=O)[C@@H](N)CCCCN)C(C)C)=CC[C@@]4(O)[C@@H](C2)N(C)CC[C@]314` [Lys-Lys-Val-OC], in data set [3] (setting [5]), the “Oral (% AUC)” value stood at 108 % AUC.

On to `COc1ccc2c3c1O[C@H]1C(OC(=O)[C@H](Cc4ccccc4)NC(=O)[C@H](CCC(=O)O)NC(=O)[C@@H](N)CCC(=O)O)=CC[C@@]4(O)[C@@H](C2)N(C)CC[C@]314` [Glu-Glu-Phe-OC], for which, in data set [3] (setting [5]), the “Oral (% AUC)” value is 49 % AUC.

Take `CC[C@H](C)[C@H](NC(=O)[C@H](CCC(=O)O)NC(=O)[C@@H](N)CCC(=O)O)C(=O)OC1=CC[C@@]2(O)[C@H]3Cc4ccc(OC)c5c4[C@@]2(CCN3C)[C@H]1O5` [Glu-Glu-Ile-OC]: the “Oral (% AUC)” value in data set [3] (setting [5]) was 179 % AUC.

Regarding `COc1ccc2c3c1O[C@H]1C(OC(=O)[C@@H](NC(=O)[C@H](CC(=O)O)NC(=O)[C@@H](N)CC(=O)O)C(C)C)=CC[C@@]4(O)[C@@H](C2)N(C)CC[C@]314` [Asp-Asp-Val-OC], the “Oral (% AUC)” value in data set [3] (setting [5]) was found to be 40 % AUC.

With `COc1ccc2c3c1O[C@H]1C(OC(=O)[C@H](CC(C)C)NC(=O)[C@H](CCCCN)NC(=O)[C@@H](N)CCCCN)=CC[C@@]4(O)[C@@H](C2)N(C)CC[C@]314` [Lys-Lys-Leu-OC], in data set [3] (setting [5]), the “Oral (% AUC)” value is 46 % AUC.

For the molecule `COc1ccc2c3c1O[C@H]1C(OC(=O)[C@@H]4CCCN4C(=O)[C@H](CCC(=O)O)NC(=O)[C@@H](N)CCC(=O)O)=CC[C@@]4(O)[C@@H](C2)N(C)CC[C@]314` [Glu-Glu-Pro-OC], the “Oral (% AUC)” value in data set [3] (setting [5]) is recorded as 71 % AUC.

In the case of Phe-Phe-Val-OC, the “Oral (% AUC)” value in data set [3] (setting [5]) came to 32 % AUC.

Take Phe-Phe-Ile-OC: the “Oral (% AUC)” value in data set [3] (setting [5]) was 59 % AUC.

Consider `COc1ccc2c3c1O[C@H]1C(OC(=O)[C@H](CC(C)C)NC(=O)[C@H](CCC(=O)O)NC(=O)[C@@H](N)CCC(=O)O)=CC[C@@]4(O)[C@@H](C2)N(C)CC[C@]314` [Glu-Glu-Leu-OC], for which the “Oral (% AUC)” value in data set [3] (setting [5]) is 80 % AUC.

As for `COc1ccc2c3c1O[C@H]1C(OC(=O)[C@@H](NC(=O)[C@H](CC(=O)O)NC(=O)[C@@H](N)CCC(=O)O)C(C)C)=CC[C@@]4(OC(=O)[C@@H](NC(=O)[C@H](CC(=O)O)NC(=O)[C@@H](N)CCC(=O)O)C(C)C)[C@@H](C2)N(C)CC[C@]314` [(EDV)2-OC, [Glu-Asp-Val]2-OC], the “AUC % (Intranasal Bioavailability)” value in data set [1] came to 20%. Also, in data set [3], the “AUC % (Oral Bioavailability)” value is listed as 73%.

For OC-Succcinate, in data set [3] (setting [5]), the “Oral (% AUC)” value was 79 % AUC.

Regarding `CC[C@H](C)[C@H](N)C(=O)N[C@H](C(=O)N[C@H](C(=O)OC1=CC[C@@]2(O)[C@H]3Cc4ccc(OC)c5c4[C@@]2(CCN3C)[C@H]1O5)[C@@H](C)CC)[C@@H](C)CC` [Ile-Ile-Ile-OC], the “Oral (% AUC)” value in data set [3] (setting [5]) is 83 % AUC.

For the molecule `COc1ccc2c3c1O[C@H]1C(OC(=O)[C@H](Cc4ccccc4)NC(=O)CNC(=O)CN)=CC[C@@]4(O)[C@@H](C2)N(C)CC[C@]314` [Gly-Gly-Phe-OC], the “Oral (% AUC)” value in data set [3] (setting [5]) was found to be 163 % AUC.

On to Pro-Pro-Val-OC, for which, in data set [3], the “AUC % (Oral Bioavailability)” value is reported as 152%. In addition, in data set [3] (setting [5]), the “Oral (% AUC)” value was 152 % AUC.

With `COc1ccc2c3c1O[C@H]1C(OC(=O)[C@H](Cc4ccccc4)NC(=O)[C@H](CCCCN)NC(=O)[C@@H](N)CCCCN)=CC[C@@]4(O)[C@@H](C2)N(C)CC[C@]314` [Lys-Lys-Phe-OC], the “Oral (% AUC)” value in data set [3] (setting [5]) is 37 % AUC.

On to `COc1ccc2c3c1O[C@H]1C(OC(=O)[C@@H](NC(=O)[C@H](CCC(=O)O)NC(=O)[C@@H](N)C(C)C)C(C)C)=CC[C@@]4(OC(=O)[C@@H](NC(=O)[C@H](CCC(=O)O)NC(=O)[C@@H](N)C(C)C)C(C)C)[C@@H](C2)N(C)CC[C@]314` [(VEV)2-OC, [Val-Glu-Val]2-OC], for which the “AUC % (Intranasal Bioavailability)” value in data set [1] came out at 39%. Moreover, the “AUC % (Oral Bioavailability)” value in data set [3] is on record as 104%.

Consider `COc1ccc2c3c1O[C@H]1C(=O)CC[C@@]4(O)[C@@H](C2)N(C)CC[C@]314` [OXY, oxycodone], for which, in data set [4], the Therapeutic plasma concentration was 10 to 100 ng/mL and the toxic plasma concentration result is listed as “greater than 200 ng/mL”. In addition, the “AUC % (Oral Bioavailability)” value in data set [3] is recorded as 100%. Besides, in data set [3] (setting [5]), the “Oral (% AUC)” value turned out to be 100 % AUC.

For the molecule Tyr-Tyr-Phe-OC, the “Oral (% AUC)” value in data set [3] (setting [5]) was determined as 73 % AUC.

As for Pro-Pro-Ile-OC, in data set [3], the “AUC % (Oral Bioavailability)” value was 85%. In addition, the “Oral (% AUC)” value in data set [3] (setting [5]) is listed as 85 % AUC.

Take Tyr-Tyr-Ile-OC: the “Oral (% AUC)” value in data set [3] (setting [5]) is on record as 85 % AUC.

As to `COc1ccc2c3c1O[C@H]1C(OC(=O)[C@@H](NC(=O)CNC(=O)[C@@H](N)CO)C(C)C)=CC[C@@]4(OC(=O)[C@@H](NC(=O)CNC(=O)[C@@H](N)CO)C(C)C)[C@@H](C2)N(C)CC[C@]314` [(SGV)2-OC, [Ser-Gly-Val]2-OC], the “AUC % (Intranasal Bioavailability)” value in data set [1] is given as 64%. Moreover, the “AUC % (Intravenous Bioavailability)” value in data set [2] (reference = 100) came out at 52%. Further, in data set [3], the “AUC % (Oral Bioavailability)” value is 103%.

Val-Val-Phe-OC: the “Oral (% AUC)” value in data set [3] (setting [5]) is recorded as 120 % AUC.

With `COc1ccc2c3c1O[C@H]1C(OC(=O)[C@@H](NC(=O)[C@H](C)NC(=O)[C@H](C)N)C(C)C)=CC[C@@]4(O)[C@@H](C2)N(C)CC[C@]314` [Ala-Ala-Val-OC], the “Oral (% AUC)” value in data set [3] (setting [5]) is given as 85 % AUC.
